Assay results from US20240034778A1 (REGENTS OF THE UNIVERSITY OF MICHIGAN, published 2024).
Substitutions are numbered along the chain they refer to.

B1: crenezumab (antibody, V domains shown)
VH: EVQLVESGGGLVQPGGSLRLSCAASGFTFSSYGMSWVRQAPGKGLELVASINSNGGSTYYPDSVKGRFTISRDNAKNSLYLQMNSLRAEDTAVYYCASGDYWGQGTTVTVSS
VL: DIVMTQSPLSLPVTPGEPASISCRSSQSLVYSNGDTYLHWYLQKPGQSPQLLIYKVSNRFSGVPDRFSGSGSGTDFTLKISRVEAEDVGVYYCSQSTHVPWTFGQGTKVEIKR
B2: Clone 101 (Fc fusion)
VH: EVQLVESGGGLVQPGGSLRLSCAASGFNIKDTYIHWVRQAPGKGLEWVARIYPASGSTRYAGSVKGRFTISADTSKNTAYLQMNSLRAEDTAVYYCARDGYDGSYFVGYDYNDFYDYWGQGTLVTVSS
VL: DIQMTQSPSSLSASVGDRVTITCRASQNVYSAVTWYQQKPGKAPKLLIYSASFLYSGVPSRFSGSRSGTDFTLTISSLQPEDFATYYCQQHSTYPPTFGQGTKVEIK
B3: Clone 97 (Fc fusion)
VH: B2 VH with S57A, G62D
VL: B2 VL with Y30A, S31Y
notes: also called parental antibody (clone 97); 97 WT
B4: Clone 93 (Fc fusion)
VH: B2 VH with A54S, S55N, S57Y
VL: B2 VL with S31N, S92N

How the values were obtained:
[1] = target: T1, Aβ fibrils (fibrils of Aβ1-42) (UniProt P05067 672-713); test: flow cytometry, antibody on Aβ fibril-coated streptavidin beads
T1 construct: domain: Aβ1-42; Fibrillar (aggregated) state of synthetic Aβ1-42; For flow cytometry the fibrils were doped with 1% biotinylated Aβ1-42 and held on streptavidin Dynabeads; for dot blots unlabeled fibrils were spotted on nitrocellulose; also called Aβ42 fibrils; fibrillar Aβ
Experimental: (§1) For affinity analysis, the binding of antibodies to Aβ fibrils was evaluated using streptavidin dynabeads and flow cytometry. Beads were immobilized with 1% biotinylated fibrils as described above. The fibril-coated beads were washed twice with PBSB and then blocked with 10% milk in PBS at room temperature for 1 hour with end-over-end mixing. Afterward, the beads were washed 2× with PBSB.
(§2) Antibodies were thawed and centrifuged at 21000× g for 5 minutes to remove aggregates. The supernatant was transferred to a new tube and the antibody concentration was determined by measuring absorbance at 280 nm. Antibody dilutions were made in PBSB. Fibril-coated beads (1.25×10⁵ beads per evaluated antibody concentration) were incubated with antibodies in 96 well plates (Greiner, 650261) in 1% milk for 3 hours at 25° C.(300 RPM). Next, the plates were centrifuged at 3500 RPM for 5 minutes, the supernatants were discarded, and the beads were washed once with ice-cold PBSB. After washing, the plates were spun down again and the beads with resuspended with 300× diluted goat anti-human Fc AF647 (Jackson Immunoresearch, 109-605-098) on ice for 4-5 minutes. […] Two independent repeats were performed with different batches of beads coated with Aβ fibrils.

[2] = target: T1, Aβ fibrils (fibrils of Aβ1-42); test: immunodot blot, antibody at 10 nM, 30 second exposure
Experimental: (§3) FIG. 6A includes images of an immunoblot analysis of the conformational and sequence specificity of the selected Aβ antibodies. Disaggregated Aβ and fibrillar Aβ, IAPP, and αSyn were immobilized on nitrocellulose membranes and probed with anti-Aβ antibodies (10 nM in PBS with 1% milk). The blots were imaged after relatively short exposure times (30 seconds) except for AF1 (45 minute exposure). A loading control blot was detected using colloidal silver stain. The experiments were repeated three times and a representative example is shown. FIG. 6B includes images of immunoblot analysis of the conformational and sequence specificity of the selected Aβ antibodies using a long exposure time. The blots were processed and imaged as described in FIG. 6A except that all of the blots were processed after a relatively long exposure time (45 minutes). A loading control blot was detected using colloidal silver stain. The experiments were repeated three times and a representative example is shown.
(§4) The conformational specificity of the selected antibodies was then assessed using immunodot blots (FIG. 6A).

[3] = target: T2, disaggregated Aβ (Aβ1-42) (UniProt P05067 672-713); test: immunodot blot, antibody at 10 nM, 45 minute exposure
T2 construct: domain: Aβ1-42; Same peptide as the fibrils, in the disaggregated (soluble) state; also called soluble Aβ; Aβ monomer
Experimental: as §3, §4

[4] = target: T1, Aβ fibrils (fibrils of Aβ1-42); test: flow cytometry, antibody on Aβ fibril-coated streptavidin beads (fibril batch of FIG. 5)
Experimental: as §1, §2

[5] = target: T1, Aβ fibrils (fibrils of Aβ1-42); test: flow cytometry, antibody on Aβ fibril-coated streptavidin beads (fibril batch of FIG. 10)
Experimental: as §1, §2

| Binder | EC50 [1] [nM] | binding result [2] | binding result [3] | EC50 [4] [nM] | EC50 [5] [nM] |
| --- | --- | --- | --- | --- | --- |
| B1 | 9 | – | – | – | – |
| B2 | – | binds | binds | – | – |
| B3 | – | – | – | 8 | 18 |
| B4 | – | binds | binds | – | – |
